First the molecules themselves.
T1: ScVLa capsid protein Cap, full size (697 amino acids) (ScVLa virus of Saccharomyces cerevisiae)
T1 chain: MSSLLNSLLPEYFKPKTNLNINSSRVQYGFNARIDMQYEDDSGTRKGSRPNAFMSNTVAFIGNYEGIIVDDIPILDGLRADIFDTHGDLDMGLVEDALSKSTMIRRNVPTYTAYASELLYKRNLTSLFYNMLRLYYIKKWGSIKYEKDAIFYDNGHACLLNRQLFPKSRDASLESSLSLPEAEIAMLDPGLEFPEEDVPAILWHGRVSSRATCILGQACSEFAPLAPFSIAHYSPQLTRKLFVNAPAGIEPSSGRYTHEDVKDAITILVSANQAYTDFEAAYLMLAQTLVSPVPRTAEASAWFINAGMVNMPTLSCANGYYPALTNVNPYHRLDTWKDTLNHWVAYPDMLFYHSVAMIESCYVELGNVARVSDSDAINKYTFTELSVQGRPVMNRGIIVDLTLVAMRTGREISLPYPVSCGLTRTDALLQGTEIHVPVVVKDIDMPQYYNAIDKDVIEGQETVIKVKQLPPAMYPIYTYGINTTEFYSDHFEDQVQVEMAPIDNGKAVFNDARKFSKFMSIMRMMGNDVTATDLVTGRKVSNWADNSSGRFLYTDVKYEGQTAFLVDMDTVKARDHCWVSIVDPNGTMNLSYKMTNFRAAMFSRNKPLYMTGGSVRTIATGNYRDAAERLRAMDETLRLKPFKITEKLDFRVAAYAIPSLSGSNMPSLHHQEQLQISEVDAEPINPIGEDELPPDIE

B1: La Cap N-terminal fragment of pGLa1d2 (aa 1-476) (other)
chain: MSSLLNSLLPEYFKPKTNLNINSSRVQYGFNARIDMQYEDDSGTRKGSRPNAFMSNTVAFIGNYEGIIVDDIPILDGLRADIFDTHGDLDMGLVEDALSKSTMIRRNVPTYTAYASELLYKRNLTSLFYNMLRLYYIKKWGSIKYEKDAIFYDNGHACLLNRQLFPKSRDASLESSLSLPEAEIAMLDPGLEFPEEDVPAILWHGRVSSRATCILGQACSEFAPLAPFSIAHYSPQLTRKLFVNAPAGIEPSSGRYTHEDVKDAITILVSANQAYTDFEAAYLMLAQTLVSPVPRTAEASAWFINAGMVNMPTLSCANGYYPALTNVNPYHRLDTWKDTLNHWVAYPDMLFYHSVAMIESCYVELGNVARVSDSDAINKYTFTELSVQGRPVMNRGIIVDLTLVAMRTGREISLPYPVSCGLTRTDALLQGTEIHVPVVVKDIDMPQYYNAIDKDVIEGQETVIKVKQLPPAMYPI
B2: La Cap fragment of pGLa1d8 (aa 98-443) (other)
chain: LSKSTMIRRNVPTYTAYASELLYKRNLTSLFYNMLRLYYIKKWGSIKYEKDAIFYDNGHACLLNRQLFPKSRDASLESSLSLPEAEIAMLDPGLEFPEEDVPAILWHGRVSSRATCILGQACSEFAPLAPFSIAHYSPQLTRKLFVNAPAGIEPSSGRYTHEDVKDAITILVSANQAYTDFEAAYLMLAQTLVSPVPRTAEASAWFINAGMVNMPTLSCANGYYPALTNVNPYHRLDTWKDTLNHWVAYPDMLFYHSVAMIESCYVELGNVARVSDSDAINKYTFTELSVQGRPVMNRGIIVDLTLVAMRTGREISLPYPVSCGLTRTDALLQGTEIHVPVVVKDI
B3: La Cap N-terminal fragment of nonsense mutant pGLa1m3 (K506O, aa 1-505) (other)
chain: MSSLLNSLLPEYFKPKTNLNINSSRVQYGFNARIDMQYEDDSGTRKGSRPNAFMSNTVAFIGNYEGIIVDDIPILDGLRADIFDTHGDLDMGLVEDALSKSTMIRRNVPTYTAYASELLYKRNLTSLFYNMLRLYYIKKWGSIKYEKDAIFYDNGHACLLNRQLFPKSRDASLESSLSLPEAEIAMLDPGLEFPEEDVPAILWHGRVSSRATCILGQACSEFAPLAPFSIAHYSPQLTRKLFVNAPAGIEPSSGRYTHEDVKDAITILVSANQAYTDFEAAYLMLAQTLVSPVPRTAEASAWFINAGMVNMPTLSCANGYYPALTNVNPYHRLDTWKDTLNHWVAYPDMLFYHSVAMIESCYVELGNVARVSDSDAINKYTFTELSVQGRPVMNRGIIVDLTLVAMRTGREISLPYPVSCGLTRTDALLQGTEIHVPVVVKDIDMPQYYNAIDKDVIEGQETVIKVKQLPPAMYPIYTYGINTTEFYSDHFEDQVQVEMAPIDNG
B4: La Cap N-terminal fragment of pGLa1d5 (aa 1-418) (other)
chain: MSSLLNSLLPEYFKPKTNLNINSSRVQYGFNARIDMQYEDDSGTRKGSRPNAFMSNTVAFIGNYEGIIVDDIPILDGLRADIFDTHGDLDMGLVEDALSKSTMIRRNVPTYTAYASELLYKRNLTSLFYNMLRLYYIKKWGSIKYEKDAIFYDNGHACLLNRQLFPKSRDASLESSLSLPEAEIAMLDPGLEFPEEDVPAILWHGRVSSRATCILGQACSEFAPLAPFSIAHYSPQLTRKLFVNAPAGIEPSSGRYTHEDVKDAITILVSANQAYTDFEAAYLMLAQTLVSPVPRTAEASAWFINAGMVNMPTLSCANGYYPALTNVNPYHRLDTWKDTLNHWVAYPDMLFYHSVAMIESCYVELGNVARVSDSDAINKYTFTELSVQGRPVMNRGIIVDLTLVAMRTGREISLPYPV
B5: La Cap N-terminal fragment of pGLa1d1 (aa 1-502) (other)
chain: MSSLLNSLLPEYFKPKTNLNINSSRVQYGFNARIDMQYEDDSGTRKGSRPNAFMSNTVAFIGNYEGIIVDDIPILDGLRADIFDTHGDLDMGLVEDALSKSTMIRRNVPTYTAYASELLYKRNLTSLFYNMLRLYYIKKWGSIKYEKDAIFYDNGHACLLNRQLFPKSRDASLESSLSLPEAEIAMLDPGLEFPEEDVPAILWHGRVSSRATCILGQACSEFAPLAPFSIAHYSPQLTRKLFVNAPAGIEPSSGRYTHEDVKDAITILVSANQAYTDFEAAYLMLAQTLVSPVPRTAEASAWFINAGMVNMPTLSCANGYYPALTNVNPYHRLDTWKDTLNHWVAYPDMLFYHSVAMIESCYVELGNVARVSDSDAINKYTFTELSVQGRPVMNRGIIVDLTLVAMRTGREISLPYPVSCGLTRTDALLQGTEIHVPVVVKDIDMPQYYNAIDKDVIEGQETVIKVKQLPPAMYPIYTYGINTTEFYSDHFEDQVQVEMAPI
B6: La Cap N-terminal fragment of nonsense mutant pGLa1m4 (I443O, aa 1-442) (other)
chain: MSSLLNSLLPEYFKPKTNLNINSSRVQYGFNARIDMQYEDDSGTRKGSRPNAFMSNTVAFIGNYEGIIVDDIPILDGLRADIFDTHGDLDMGLVEDALSKSTMIRRNVPTYTAYASELLYKRNLTSLFYNMLRLYYIKKWGSIKYEKDAIFYDNGHACLLNRQLFPKSRDASLESSLSLPEAEIAMLDPGLEFPEEDVPAILWHGRVSSRATCILGQACSEFAPLAPFSIAHYSPQLTRKLFVNAPAGIEPSSGRYTHEDVKDAITILVSANQAYTDFEAAYLMLAQTLVSPVPRTAEASAWFINAGMVNMPTLSCANGYYPALTNVNPYHRLDTWKDTLNHWVAYPDMLFYHSVAMIESCYVELGNVARVSDSDAINKYTFTELSVQGRPVMNRGIIVDLTLVAMRTGREISLPYPVSCGLTRTDALLQGTEIHVPVVVKD
B7: La Cap N-terminal fragment of pGLa1d4 (aa 1-428) (other)
chain: MSSLLNSLLPEYFKPKTNLNINSSRVQYGFNARIDMQYEDDSGTRKGSRPNAFMSNTVAFIGNYEGIIVDDIPILDGLRADIFDTHGDLDMGLVEDALSKSTMIRRNVPTYTAYASELLYKRNLTSLFYNMLRLYYIKKWGSIKYEKDAIFYDNGHACLLNRQLFPKSRDASLESSLSLPEAEIAMLDPGLEFPEEDVPAILWHGRVSSRATCILGQACSEFAPLAPFSIAHYSPQLTRKLFVNAPAGIEPSSGRYTHEDVKDAITILVSANQAYTDFEAAYLMLAQTLVSPVPRTAEASAWFINAGMVNMPTLSCANGYYPALTNVNPYHRLDTWKDTLNHWVAYPDMLFYHSVAMIESCYVELGNVARVSDSDAINKYTFTELSVQGRPVMNRGIIVDLTLVAMRTGREISLPYPVSCGLTRTDAL
B8: La Cap fragment of pGLa1d7 (aa 6-443) (other)
chain: NSLLPEYFKPKTNLNINSSRVQYGFNARIDMQYEDDSGTRKGSRPNAFMSNTVAFIGNYEGIIVDDIPILDGLRADIFDTHGDLDMGLVEDALSKSTMIRRNVPTYTAYASELLYKRNLTSLFYNMLRLYYIKKWGSIKYEKDAIFYDNGHACLLNRQLFPKSRDASLESSLSLPEAEIAMLDPGLEFPEEDVPAILWHGRVSSRATCILGQACSEFAPLAPFSIAHYSPQLTRKLFVNAPAGIEPSSGRYTHEDVKDAITILVSANQAYTDFEAAYLMLAQTLVSPVPRTAEASAWFINAGMVNMPTLSCANGYYPALTNVNPYHRLDTWKDTLNHWVAYPDMLFYHSVAMIESCYVELGNVARVSDSDAINKYTFTELSVQGRPVMNRGIIVDLTLVAMRTGREISLPYPVSCGLTRTDALLQGTEIHVPVVVKDI
B9: La Cap N-terminal fragment of pGLa1d6 (aa 1-401) (other)
chain: MSSLLNSLLPEYFKPKTNLNINSSRVQYGFNARIDMQYEDDSGTRKGSRPNAFMSNTVAFIGNYEGIIVDDIPILDGLRADIFDTHGDLDMGLVEDALSKSTMIRRNVPTYTAYASELLYKRNLTSLFYNMLRLYYIKKWGSIKYEKDAIFYDNGHACLLNRQLFPKSRDASLESSLSLPEAEIAMLDPGLEFPEEDVPAILWHGRVSSRATCILGQACSEFAPLAPFSIAHYSPQLTRKLFVNAPAGIEPSSGRYTHEDVKDAITILVSANQAYTDFEAAYLMLAQTLVSPVPRTAEASAWFINAGMVNMPTLSCANGYYPALTNVNPYHRLDTWKDTLNHWVAYPDMLFYHSVAMIESCYVELGNVARVSDSDAINKYTFTELSVQGRPVMNRGIIVDL

The results in this text go back to patent US5831013, “Capsid polypeptides and use to inhibit viral packaging” (The Research Foundation of State University of New York, dated 1998).

In the assay the target is T1, ScVLa capsid protein Cap, full size …. Description: cell-based or functional assay.
B1: the “Curing (%) of ScVLa” value is 100%.

On to B2, for which the “Curing (%) of ScVLa” value was under 10%.

As for B3, the “Curing (%) of ScVLa” value turned out to be 100%.

In the case of B4, the “Curing (%) of ScVLa” value is under 10%.

Regarding B5, the “Curing (%) of ScVLa” value amounted to 100%.

For the molecule B6, the “Curing (%) of ScVLa” value amounted to 100%.

As for B7, the “Curing (%) of ScVLa” value was determined as 50%.

In the case of B8, the “Curing (%) of ScVLa” value was under 10%.

With B9, the “Curing (%) of ScVLa” value is under 10%.
